# Test system: MS2 coat protein
# Experiment: apparent KD of MS2 coat protein; higher = weaker reporter binding
# Details: Eterna round: R107; input ligand: theophylline 2 mM
# Outline: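 With or without constant ligand, designed RNA switches in 100 mM Tris-HCl pH 7.5, 80 mM KCl and 4 mM MgCl2 were titrated with SNAP-549-labelled MS2 coat protein. Concentrations went up in twofold steps from 0.7 or 1.5 nM to 3 µM. The switches had been transcribed on-chip from Illumina sequencing clusters, and apparent KD is the per-design median of normalised cluster binding-curve fits.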
row,Sequence,apparent KD of MS2 coat protein [nM]
1,GGGCUGUGACCAGGAAAUGGUCACAGCCCACGAGGACCGGUACGGCCGCCACUCGAAAGUACAUGAGGAUCACCCAUGUCGGUGG [#1 Same State - Tryptophan A Attempt #8 (HarryS)],37.9
2,UGGGUACAUGAGGAUCACCCAUGUACUGAAGGAGCGAGAAAUAACUCAGGUAGGUCGCAGACAUGAGGAUCACCCAUGUAAUAAA [Exclusion Arginine A GF 10],22.5
3,CGGUCGGUCGGCCGGUGAUUAUGGGAUGAAGGAGCGUGGGAAGCUACAGGUAGGUCGCAUCCGAAACACGAGGAUCACCCGUGUU [SSArg A #25Alt-Ms2 Mod],37.4
4,AGUCGAAACUGAAGGAGCGAGAUGACAACAUUGGGUCUAACAUGAGGAUCACCCAUGUAAUCUCAGGUAGGUCGCAGUAACAAAA [Exclusion Arginine B GF 16],104
5,GUACAUGAGGAUCACCCAUGUAUAGUUGAAGGAGCGACCGGUGGGUCAGGUAGGUCGCAGCGCAUGGCGUCCACGCGUGUAUGCC [#1 Exclusion - Arginine A Attempt #29 (Inspired by Pi)],11.1
6,AACUGGACCAGUGAUACCAGAGACAUGAGGAUCACCCAUGUACAUGAGGAUCACCCAUGUCUCCCUUGGCAGCACAGCAGGGAGC [Exclusion Theophylline B Gf12],720
7,UAAUAAUCCAGGGUGUAGGUAAUAACAGAUACCAGCCAGAUAACUGGCCCUUGGCAGCUGAAAACCUGAGGAUCACCCAGGUAAA [TheoAS 23 #OpenEnded #MS2Late #AlternativeMS2],67.7
8,GGUGGCGGGACUGAUACCAGCCACCACCGAUAGACCACAUGAGGAUCACCCAUGUUGGGUGGCCCUUGGCAGCAGUCUUGCGGCU [#1 Same State - Theophylline B Attempt #14 (HarryS)],163

# Same assay, conditions: Eterna round: R107; input ligand: tryptophan 2.4 mM
row,Sequence,apparent KD of MS2 coat protein [nM]
1,UGUAUGUGAUCUGAUACCAGUCCAACUGGUAAAAUAUGAGGAUCACCCAUAUAAAAUUGGGACCCUUGGCAGCAGAUCGCAUACU,492
2,CAGCAACAAUUGGAUACCAGCCAUUACAGGUAUCAUUAUAACAUGAGGAUCACCCAUGUAGGCCCUUGGCAGCCAUUGGUGUAAG [theeternabot_exclusion_MS2_Theo_B_22],40.5
3,UGAUCCUACAGAGAUACCAGUGCCACUGAGUGACCAGACACAUGAGGAUCACCCAUGUAACACCCUUGGCAGCUCAACUAGAGGG [Same State Theophylline B GF18],19.7
4,ACAUGAGGAUCACCCAUGUUCCUCAUUGAUACCAGUGAAUUUAGACGCCCUUGGCAGCGAGUUUUUUUAUAAGAAGUUUUUUUUU [6.G],900
5,"GCGUACGAUCGGGAUACCAGACAUUGCCGUUAGGGUGAACCUGAGGAACACCCAGGUUUUGUCCCUUGGCAGCCCGAUCGUACGC [ETB NP+V+V2 #8 Diff Apt, Same Structure]",27.5
6,GUAGCUAUCGCGGCCGCCACUAAACCGGAAACGGAACAGUAGGAUCACCAUUGUGGCGAAAGCCAUAGGACCGGGCGAUAGCUAC [TryBS - Double Magnet system 2],80
7,UCAUGAGGAUCACCCAUGUGGCGUCUUGAUACCAGACGAGAAGUAGUCCCUUGGCAGCAAAUACAUGAGGAUCACCCAUGUAGGA [cccmullin2],43
8,AUCCUCAAGAAUGAUACCAGACCAAACAUGAGGAUCACCCAUGUAUCAGGCAAUUGUUACGUCCCUUGGCAGCAUGUAAGCCGAC [Theo B SS t2],39.2
9,GCCUCCAGCCGAAGGAGCGCUAGAAGGUGACAUGAGGAUCACCCAUGUGUGUGAUGUGGCUAGCAGGUAGGUCGCGGAGGAGGUA [Exclusion - Arginine B (Freestyle 21)],92
10,GUAUGGAAACAUACUUGGGUAUCAUGAGAUACCAGUACAGAAAUGUACCCUUGGCAGCUCAAGCAUACAUGAGGAUCACCCAUGU [Ex Theophylline A 8],15.4
11,ACAUGAGGAUCACCCAUGUUAAGCAGGGUGCGAGGACCGGUACGGCCGCCACUCGGACAUUAUUACGAGUGAAUGGUAACGAUGU [#14 Exclusion Tryptophan A],21.7
12,AGUUAUUUCCGAAGGAGCGUUAUACAUGAGGAUCACCCAUGUACAUGAGGUUCAACAUGAAAACAGGUAGGUCGCGGAUUUUGUC [Exclusion Arginine B4],14.2
13,CUGGCAGGAUUCUCAGCUGUCAGGGCUGAUACCAGCCACGAAAGUGGCCCUUGGCAGCAGCAAACAUGAGGAUCACCCAUGUAAU [(T)''-(M)'-(T)'-(Theo)-(Ms2)_Design1],208
14,CCAUAGGGUAAAUACAUAAUCAUAUCUGAAGGAGCGUGGAUAAACACAGGUAGGUCGCAGAAUCACAUGAGGAUCACCCAUGUCU [Same State Arginine A GF11],36.5
15,AUUAAUAGUUGUGAUACCAGACGAACAUGAGGAUCACCCAUGUAACUUUUAGGUGUUGUAGUCCCUUGGCAGCACUAUUUAGUUA [JR_SSTheophyB_Sub014],33.6
16,GAUGAACUAUUUGAUACCAGACUACAUGAGGAUCACCCAUGUGUGUUAAUUUUUCAGUCAGUCCCUUGGCAGCAAAUAGUUUAUC [XTheo B #2],32.1
17,UCGCCCGGGUCGGCCGCCACUGAGGUAAUAUGACAUGAGGAUCACCCAUGUUGUCAUGUGGAACAUAGGACCGGGACCCGGGCGA [Exclusion - Tryptophan B Attempt #1 (HarryS)],13.4
18,GGGCUGUGACCAGGAAAUGGUCACAGCCCACGAGGACCGGUACGGCCGCCACUCGAAAGUACAUGAGGAUCACCCAUGUCGGUGG [#1 Same State - Tryptophan A Attempt #8 (HarryS)],50.9
19,UGGGUACAUGAGGAUCACCCAUGUACUGAAGGAGCGAGAAAUAACUCAGGUAGGUCGCAGACAUGAGGAUCACCCAUGUAAUAAA [Exclusion Arginine A GF 10],18
20,AUACCUAGUGAGUCGUGUUUCUUUUCAGAUACCAGACUUUUCGUUGUCCCUUGGCAGCUGUUUUACAUGAGGAUCACCCAUGUUG [JR_ExcTheophyA_Sub007],15.2
21,CGGUCGGUCGGCCGGUGAUUAUGGGAUGAAGGAGCGUGGGAAGCUACAGGUAGGUCGCAUCCGAAACACGAGGAUCACCCGUGUU [SSArg A #25Alt-Ms2 Mod],28.4
22,ACCGAGGCAAUGGAUACCAGUGCGCCACAAUCGUGCUUCAACAUGAGGAUCACCCAUGUGCACCCUUGGCAGCCAACGGGCUCAU [theeternabot_exclusion_MS2_Theo_B_19],19.9
23,UAACAUGAGGAUCACCCAUGUAUAGUCGAUACCAGCUCAAGGAAGAGCCCUUGGCAGCGACACUGCCAAGCAUGGGUCAUGGCAG [(Ms2)-(Theo)-(T)'-(M)'-(T)''_Design5],19.5
24,AGUCGAAACUGAAGGAGCGAGAUGACAACAUUGGGUCUAACAUGAGGAUCACCCAUGUAAUCUCAGGUAGGUCGCAGUAACAAAA [Exclusion Arginine B GF 16],93.1
25,GUACAUGAGGAUCACCCAUGUAUAGUUGAAGGAGCGACCGGUGGGUCAGGUAGGUCGCAGCGCAUGGCGUCCACGCGUGUAUGCC [#1 Exclusion - Arginine A Attempt #29 (Inspired by Pi)],11.9
26,AACUGGACCAGUGAUACCAGAGACAUGAGGAUCACCCAUGUACAUGAGGAUCACCCAUGUCUCCCUUGGCAGCACAGCAGGGAGC [Exclusion Theophylline B Gf12],119
27,UAAUAAUCCAGGGUGUAGGUAAUAACAGAUACCAGCCAGAUAACUGGCCCUUGGCAGCUGAAAACCUGAGGAUCACCCAGGUAAA [TheoAS 23 #OpenEnded #MS2Late #AlternativeMS2],62.6
28,CUCCGAGGCUAUACUAUCCGCCUCUGUGAUACCAGAAUACCUAUAUUCCCUUGGCAGCAUCACAUGAGGAUCACCCAUGUGCCAU [SSTheo A #13],13.9
29,GGUGGCGGGACUGAUACCAGCCACCACCGAUAGACCACAUGAGGAUCACCCAUGUUGGGUGGCCCUUGGCAGCAGUCUUGCGGCU [#1 Same State - Theophylline B Attempt #14 (HarryS)],739
